The source of these data is patent US20150337019A1 (MANUKAMED HOLDINGS LIMITED PARTNERSHIP, published 2015).

Common to all, as to test: cell-based or functional assay
The target in test [1] is T1, Cathepsin B from bovine spleen (bovine, UniProt P07688 80-332).
Test [2] deals with T1, Cathepsin B from bovine spleen. The source holds these as a separate data set.
Test [3] shares this target. The source holds these as a separate data set.

Like-named read-outs stand apart in the source and are kept apart here. The star is where a group is joined. TNBS = trinitrobenzene sulphonic acid, N-terminal block, O=[N+]([O-])c1cc([N+](=O)[O-])c(*)c([N+](=O)[O-])c1; pNA = O=[N+]([O-])c1ccc(N*)cc1

B1: MGO-modified Ac-CDR-OH (peptide)
peptide: Ac-Cys-Asp-Arg-OH
modifications: also: MGO-modified, site not given here
Turning to B1, the “Cathepsin B inhibition test, 2 mM peptide” value (from here on “Cathepsin B inhibition test”) in test [1] turned out to be 78.5.

B2: MGO-modified TNBS-FAK-pNA (peptide)
peptide: {TNBS}-Phe-Ala-Lys-pNA
modifications: also: MGO-modified, site not given here
As for B2, the “Cathepsin B inhibition test” value in test [1] worked out at 122.

B3: H-YINR-OH (peptide)
peptide: H-YINR-OH
As for B3, in test [1], the “Cathepsin B inhibition test” value came to 142.

B4: MGO-modified Ac-QNDNK-OH (peptide)
peptide: Ac-QNDNK-OH
modifications: also: MGO-modified, site not given here
With B4, in test [2], the “Cathepsin B inhibition test” value turned out to be 122.

B5: MGO-modified H-QNGNR-OH (peptide)
peptide: H-QNGNR-OH
modifications: also: MGO-modified, site not given here
For B5, the “Cathepsin B inhibition test” value in test [2] was 85.

B6: H-IFVTMLR-OH (peptide)
peptide: H-IFVTMLR-OH
With B6, in test [1], the “Cathepsin B inhibition test” value came out at 80.5.

B7: Ac-QNDNR-OH (peptide)
peptide: Ac-QNDNR-OH
Consider B7, for which the “Cathepsin B inhibition test” value in test [2] is 162.

B8: MGO-modified Ac-LVK-OH (peptide)
peptide: Ac-Leu-Val-Lys-OH
modifications: also: MGO-modified, site not given here
Take B8: the “Cathepsin B inhibition test” value in test [3] came out at 80.8.

B9: H-CDR-OH (peptide)
peptide: H-Cys-Asp-Arg-OH
For B9, in test [1], the “Cathepsin B inhibition test” value stood at 165.

B10: H-QNDNR-OH (peptide)
peptide: H-QNDNR-OH
B10: the “Cathepsin B inhibition test” value in test [2] was 162.

B11: Ac-LVK-OH (peptide)
peptide: Ac-Leu-Val-Lys-OH
Take B11: in test [3], the “Cathepsin B inhibition test” value was determined as 144.

B12: MGO-modified H-HNIR-OH (peptide)
peptide: H-HNIR-OH
modifications: also: MGO-modified, site not given here
B12: the “Cathepsin B inhibition test” value in test [1] amounted to 103.

B13: H-QNGNR-OH (peptide)
peptide: H-QNGNR-OH
Turning to B13, the “Cathepsin B inhibition test” value in test [2] turned out to be 74.4.

B14: MGO-modified Ac-FDR-OH (peptide)
peptide: Ac-Phe-Asp-Arg-OH
modifications: also: MGO-modified, site not given here
Consider B14, for which, in test [1], the “Cathepsin B inhibition test” value was found to be 44.8.

B15: MGO-modified Ac-MTR-OH (peptide)
peptide: Ac-Met-Thr-Arg-OH
modifications: also: MGO-modified, site not given here
On to B15, for which the “Cathepsin B inhibition test” value in test [1] stood at 119.

B16: Ac-IFVTMLR-OH (peptide)
peptide: Ac-IFVTMLR-OH
B16: the “Cathepsin B inhibition test” value in test [1] is 88.3.

B17: MGO-modified Ac-HNIR-OH (peptide)
peptide: Ac-HNIR-OH
modifications: also: MGO-modified, site not given here
As to B17, in test [1], the “Cathepsin B inhibition test” value is 107.

B18: MGO-modified H-YINR-OH (peptide)
peptide: H-YINR-OH
modifications: also: MGO-modified, site not given here
Take B18: in test [1], the “Cathepsin B inhibition test” value was 79.2.

B19: MGO-modified H-FTK-OH (peptide)
peptide: H-Phe-Thr-Lys-OH
modifications: also: MGO-modified, site not given here
In the case of B19, in test [1], the “Cathepsin B inhibition test” value was found to be 76.6.

B20: MGO-modified Ac-QNDNR-OH (peptide)
peptide: Ac-QNDNR-OH
modifications: also: MGO-modified, site not given here
B20: the “Cathepsin B inhibition test” value in test [2] was 132.

B21: MGO-modified Ac-FTK-OH (peptide)
peptide: Ac-Phe-Thr-Lys-OH
modifications: also: MGO-modified, site not given here
As to B21, the “Cathepsin B inhibition test” value in test [1] amounted to 105.

B22: MGO-modified Ac-LVK-NH2 (peptide)
peptide: Ac-Leu-Val-Lys-NH2
modifications: also: MGO-modified, site not given here
In the case of B22, in test [3], the “Cathepsin B inhibition test” value worked out at 80.

B23: MGO-modified H-IFVTMLR-OH (peptide)
peptide: H-IFVTMLR-OH
modifications: also: MGO-modified, site not given here
In the case of B23, the “Cathepsin B inhibition test” value in test [1] was found to be 78.7.

B24: H-MTR-OH (peptide)
peptide: H-Met-Thr-Arg-OH
On to B24, for which the “Cathepsin B inhibition test” value in test [1] was determined as 143.

B25: Ac-FDR-OH (peptide)
peptide: Ac-Phe-Asp-Arg-OH
As for B25, the “Cathepsin B inhibition test” value in test [1] was 85.6.

B26: Ac-MQK-OH (peptide)
peptide: Ac-Met-Gln-Lys-OH
With B26, in test [1], the “Cathepsin B inhibition test” value was found to be 121.

B27: H-QNGNK-OH (peptide)
peptide: H-QNGNK-OH
For B27, the “Cathepsin B inhibition test” value in test [2] was 171.

B28: Ac-QNGNR-OH (peptide)
peptide: Ac-QNGNR-OH
As to B28, the “Cathepsin B inhibition test” value in test [2] worked out at 101.

B29: MGO-modified H-CDR-OH (peptide)
peptide: H-Cys-Asp-Arg-OH
modifications: also: MGO-modified, site not given here
Take B29: the “Cathepsin B inhibition test” value in test [1] was found to be 96.

B30: MGO-modified H-QNGNK-OH (peptide)
peptide: H-QNGNK-OH
modifications: also: MGO-modified, site not given here
As to B30, the “Cathepsin B inhibition test” value in test [2] stood at 119.

B31: H-FTK-OH (peptide)
peptide: H-Phe-Thr-Lys-OH
For the molecule B31, the “Cathepsin B inhibition test” value in test [1] amounted to 148.

B32: Ac-MTR-OH (peptide)
peptide: Ac-Met-Thr-Arg-OH
In the case of B32, the “Cathepsin B inhibition test” value in test [1] turned out to be 126.

B33: MGO-modified Ac-YINR-OH (peptide)
peptide: Ac-YINR-OH
modifications: also: MGO-modified, site not given here
For the molecule B33, the “Cathepsin B inhibition test” value in test [1] turned out to be 99.

B34: Ac-HNIR-OH (peptide)
peptide: Ac-HNIR-OH
Consider B34, for which the “Cathepsin B inhibition test” value in test [1] turned out to be 172.

B35: MGO-modified H-MQK-OH (peptide)
peptide: H-Met-Gln-Lys-OH
modifications: also: MGO-modified, site not given here
For B35, in test [1], the “Cathepsin B inhibition test” value came to 99.5.

B36: MGO-modified Ac-MQK-OH (peptide)
peptide: Ac-Met-Gln-Lys-OH
modifications: also: MGO-modified, site not given here
Take B36: the “Cathepsin B inhibition test” value in test [1] came to 69.2.

B37: Ac-YINR-OH (peptide)
peptide: Ac-YINR-OH
With B37, the “Cathepsin B inhibition test” value in test [1] amounted to 93.1.

B38: MGO-modified H-QNDNK-OH (peptide)
peptide: H-QNDNK-OH
modifications: also: MGO-modified, site not given here
For B38, in test [2], the “Cathepsin B inhibition test” value came to 68.4.

B39: Ac-LVK-NH2 (peptide)
peptide: Ac-Leu-Val-Lys-NH2
Regarding B39, the “Cathepsin B inhibition test” value in test [3] was found to be 92.7.

B40: TNBS-FAK-pNA (peptide)
peptide: {TNBS}-Phe-Ala-Lys-pNA
SMILES: C[C@H](NC(=O)[C@H](Cc1ccccc1)Nc1c([N+](=O)[O-])cc([N+](=O)[O-])cc1[N+](=O)[O-])C(=O)N[C@@H](CCCCN)C(=O)Nc1ccc([N+](=O)[O-])cc1
On to B40, for which the “Cathepsin B inhibition test” value in test [1] stood at 99.3.

B41: H-HNIR-OH (peptide)
peptide: H-HNIR-OH
On to B41, for which the “Cathepsin B inhibition test” value in test [1] is 152.

B42: MGO-modified Ac-QNGNR-OH (peptide)
peptide: Ac-QNGNR-OH
modifications: also: MGO-modified, site not given here
For B42, in test [2], the “Cathepsin B inhibition test” value turned out to be 88.7.

B43: Ac-QNDNK-OH (peptide)
peptide: Ac-QNDNK-OH
On to B43, for which the “Cathepsin B inhibition test” value in test [2] was found to be 167.

B44: H-QNDNK-OH (peptide)
peptide: H-QNDNK-OH
Turning to B44, in test [2], the “Cathepsin B inhibition test” value was found to be 104.

B45: Ac-QNGNK-OH (peptide)
peptide: Ac-QNGNK-OH
Consider B45, for which the “Cathepsin B inhibition test” value in test [2] stood at 187.

B46: Ac-CDR-OH (peptide)
peptide: Ac-Cys-Asp-Arg-OH
Take B46: the “Cathepsin B inhibition test” value in test [1] was determined as 121.

B47: Ac-FTK-OH (peptide)
peptide: Ac-Phe-Thr-Lys-OH
Consider B47, for which the “Cathepsin B inhibition test” value in test [1] came out at 149.

B48: H-MQK-OH (peptide)
peptide: H-Met-Gln-Lys-OH
As for B48, in test [1], the “Cathepsin B inhibition test” value was determined as 127.

B49: MGO-modified Ac-QNGNK-OH (peptide)
peptide: Ac-QNGNK-OH
modifications: also: MGO-modified, site not given here
As to B49, the “Cathepsin B inhibition test” value in test [2] amounted to 89.2.

B50: MGO-modified H-MTR-OH (peptide)
peptide: H-Met-Thr-Arg-OH
modifications: also: MGO-modified, site not given here
As to B50, the “Cathepsin B inhibition test” value in test [1] amounted to 104.

B51: MGO-modified Ac-IFVTMLR-OH (peptide)
peptide: Ac-IFVTMLR-OH
modifications: also: MGO-modified, site not given here
As for B51, the “Cathepsin B inhibition test” value in test [1] came to 92.6.
